Test results: the supplement of paper PMC9170038

What was measured:
MS2 coat protein [1] = assay: apparent KD of MS2 coat protein, switch OFF state (with FMN for OFF switches, without FMN for ON switches); designed switch direction (-1 OFF switch, 1 ON switch): 1; higher = weaker reporter binding; conditions: FMN input: 0 or 200 uM; Eterna round: R93 (includes R88 designs)
Method in brief: (§1)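 Each design's apparent KD comes from the median of binding-curve fits to its normalised clusters. Those clusters carried RNA switches transcribed on-chip from Illumina sequencing clusters. SNAP-549-labelled MS2 coat protein was titrated onto them in twofold steps (0.7 or 1.5 nM to 3 µM; per step 0.8–1.5 h down to 10–20 min). Conditions were 100 mM Tris-HCl pH 7.5, 80 mM KCl, 4 mM MgCl2, without or with constant ligand.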

MS2 coat protein [2] = assay: apparent KD of MS2 coat protein, switch ON state; designed switch direction (-1 OFF switch, 1 ON switch): 1; higher = weaker reporter binding; conditions: FMN input: 0 or 200 uM; Eterna round: R93 (includes R88 designs)
Method in brief: as §1

Row | Sequence | apparent KD of MS2 coat protein (MS2 coat protein [1]) [nM] | apparent KD of MS2 coat protein (MS2 coat protein [2]) [nM]
1 | CUAAUUGCAUAUUAGGAUAUACACUGGGUGACAUGAGGAUCACCCAUGUAAAAGCACACUCGGUAGUAGAAGGAGUGUGCAAGUC [Iserso] | 19.1 | 36
2 | CUACAACAUGAGGAUCACCCAUGUCGUAGAAAUCAAGGAUAUGGGUCGGUAACAUGCGUACCAGAAGGUGAGGAAA [Rebicequ] | 30.4 | 29.3
3 | GAAAAACAUGAGGAUCACCCAUGUAAGAUAAACACAGGAUAUGCGAAAAUAAACAAAGAAGCAGAAGGGUGAAGAA [Mat - Same State 1 - Tesla mod - 72] | 80.3 | 23
4 | GAAAAACAUGAGGAUCACCCAUGUAGAAAAAUGGGAGGAUAUACAAAGACGAAAGUCAAAGUAGAAGGCCUGAAAG [same state 77% mat/eli mod] | 74.4 | 24.8
5 | GAAAAACAUGAGGAUCACCCAUGUAGAAAUAUGGGAGGAUAUACAAAGACGAAAGUCAAAGUAGAAGGCCUAAAAG [Mat - Mod of Eli] | 69.3 | 23.9
6 | GAAAAACAUGAGGAUCACCCAUGUAGAAAUAUGGGAGGAUAUACAAAGACGAAAGUCAAAGUAGAAGGCCUAAAAG [Mat - Same State 1 - Rerun of Eli mod - D1] | 69.3 | 23.9
7 | GAAAAACAUGAGGAUCACCCAUGUAGAAAUAUGGGAGGAUAUACAAAGACGAAAGUCAAAGUAGAAGGCCUAAGAG [Garnet 22] | 82.6 | 31.8
8 | GAAAAACAUGAGGAUCACCCAUGUAGAAAUAUGGGAGGAUAUACGAAGUCGAAAGUCAAAGUAGAAGGCCUAAAAG [Garnet 28] | 108 | 31.3
9 | GAAAAACAUGAGGAUCACCCAUGUGAAAAUAUGGAAGGAUAUACAAAGACGAAAGUCAAAGUAGAAGGUCUAAAAG [Mat - Same State 1 - Eli mod - D14] | 22.5 | 15
10 | GAAAAACAUGAGGAUCACCCAUGUGAAAAUAUGGGAGGAUAUACAAGGACGAAAGUCAAGGUAGAAGGCCUAAAAG [Mat - Same State 1 - Eli mod - 27] | 78.8 | 39.4
11 | GAAAAACAUGAGGAUCACCCAUGUGAGAAUAUGGGAGGAUAUACGAGGACGAGAGUCAAGGUAGAAGGCCUAAAAG [Garnet 75] | 549 | 40.5
12 | GAAAAACAUGAGGAUCACCCAUGUGAGAAUAUGGGAGGAUAUUCAAAGACGAGAGUCAAAGAAGAAGGCCUAAAAG [Mat - Same State 1 - Eli mod - 38] | 161 | 29.3
13 | GAAAAACAUGAGGAUCACCCAUGUGGAAAUAUGGAAGGAUAUACAAAGACGGAAGUCAAAGUAGAAGGUCUAAAAG [Mat - Same State 1 - Eli mod - D19] | 29.4 | 23.6
14 | GAAAAACAUGAGGAUCACCCAUGUGUAAACACGGGAGGAUAUACGAAGACGUAAGUCAAAGUAGAAGGCCUAAAAG [Garnet 40] | 60.3 | 18.9
15 | GAAAUAAAAACACAGGAUAUCCAAAAGAAAACAUGAGGAUCACCCAUGUAAAGAAAAUAAAAAUGGGAGAAGGGUGAAAAUAAAA [Mat - Same State 2 - JL mod - D26] | 41.3 | 15.8
16 | GAAGACAUAGUUCAGGAUAUAGGAAUAGUCACAUGAGGAUCACCCAUGUGCAUUUAUAUGCGCACUUAGAAGGGAGGUAGUUAUC [SameState2 Malc#23] | 25 | 36
17 | GAAGACGUAGGAUAGGAUAUGUGAAUAAUUACAUGAGGAUCACCCAUGUCCAUUUAUAUGGGAACAUAGAAGGGUUUUCGUUAUC [SameState2 Malc#9] | 281 | 341
18 | GACUAACAUGAGGAUCACCCAUGUAUUCAAACAUGAGGAUAUAUAACACAUCAUCGACGGAUAGAAGGCAUAGAUA [JR_SS001_Sub1207] | 71.7 | 81.1
19 | GAGGACCUAGGAUAGGAUAUGUGAAUAAUUACAUGAGGAUCACCCAUGUCCAUUUAUAUGGGAACAUAGAAGGGUUUUGGUUAUC [SameState2 Malc#39] | 180 | 232
20 | GAUCCAACUAGUCAGGAUAUCAGGCGUAAGACAUGAGGAUCACCCAUGUCCUAAGAACAAGUAACUGAGAAGGGACAGGGCGACC [JR_SS002_Sub412] | 74.3 | 70.5
21 | GCAAAACAUGAGGAUCACCCAUGUGAAAAGAAUGUAGGAUAUGGGCUCAUAAAUAGCAGCCCAGAAGGGCGAAGAA [Onmace] | 26.2 | 29.6
22 | GCCUAACAUGAGGAUCACCCAUGUAGUGGGUUGUUAGGAUAUGGGCCGUGUAACACUGCACCAGAAGGAAUAGAAG [Atinanqu] | 532 | 382
23 | GCGGUGUAGGUACAGGAUAUGUUGCUCGUAACAUGAGGAUCACCCAUGUACCUAUGAGAUUAAAUGCAGAAGGGUGCACACCACG [Zaalaes] | 2.41 | 21.5
24 | GGAAGACAUGAGGAUCACCCAUGUGGGAAUAUGGGAGGAUAUACAAAGACGAGAGUCAGAGUAGAAGGCCUAGGAC [salish99-ss1-102] | 105 | 32.8
25 | GGAAGACAUGAGGAUCACCCAUGUGGGAAUAUGGGAGGAUAUACAAAGACGAGAGUCAGAGUAGAAGGCCUAGGCC [salish99-ss1-103(!)] | 126 | 54.3
26 | GGAAGACAUGAGGAUCACCCAUGUGGGAUUAUGGGAGGAUAUACAAAGACGAGAGUCAGAGUAGAAGGCCUAGGAC [salish99-ss1-123(!)] | 61.4 | 31.1
27 | GGAAGGAAGAGAGAGGAUAUCCAAAGGAAAACAUGAGGAUCACCCAUGUAAAAGGUAGGAAAUUGGGAGAAGGCUCAAAAGAGAG [salish99-ss2-036] | 14 | 18.6
28 | GGAGCCGACACUGAGGAUAUUCAUAUUAAAACAUGAGGAUCACCCAUGUAGGCCAGAAGGCCUUGGGAGAAGGCAGGCCGGCUCG [Inxebi] | 256 | 19.3
29 | GGAGCCGGUACUGAGGAUAUUCAUAUUAAAACAUGAGGAUCACCCAUGUAGGCCAGAAGGCCUUGGGAGAAGGCAGACCAGCUCG [Atgexeedri] | 273 | 19.1
